Where two headings read alike, the source gives them in different places. No end group written: not given here.
Key:
HLA-DR7 (HLA-DRB1*07:01) [1] = molecular target: T1, HLA-DR7 (HLA-DRB1*07:01) (human); assay: competition ELISA vs biotin-YKL
T1 construct: mature; purified from homozygous EBV-transformed lymphoblastoid cells with antibody L243

HLA-DR3 (HLA-DRB1*03:01) [2] = molecular target: T2, HLA-DR3 (HLA-DRB1*03:01) (human); assay: competition ELISA vs biotin-MT 2-16
T2 construct: mature; purified from homozygous EBV-transformed lymphoblastoid cells with antibody L243

[3] = molecular target: T3, HLA-DR13 (HLA-DRB1*13:01) (human); assay: competition ELISA vs biotin-B1 21-36
T3 construct: mature; purified from homozygous EBV-transformed lymphoblastoid cells with antibody L243

[4] = molecular target: T4, HLA-DR15 (HLA-DRB1*15:01) (human); assay: competition ELISA vs biotin-A3 152-166
T4 construct: mature; purified from homozygous EBV-transformed lymphoblastoid cells with antibody L243

HLA-DR1 (HLA-DRB1*01:01) [5] = molecular target: T5, HLA-DR1 (HLA-DRB1*01:01) (human); assay: competition ELISA vs biotin-HA 306-318;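 further: HLA and competitor incubated 24 to 72 h, maximal signal taken from wells lacking competitor, background from wells lacking HLA molecule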
T5 construct: mature; class II HLA molecule purified from homozygous EBV-transformed lymphoblastoid cells with antibody L243

[6] = molecular target: T6, HLA-DRB5 (HLA-DRB5*01:01) (human); assay: competition ELISA vs biotin-HA 306-318;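 further: HLA and competitor incubated 24 to 72 h, maximal signal taken from wells lacking competitor, background from wells lacking HLA molecule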
T6 construct: mature; purified from homozygous EBV-transformed lymphoblastoid cells with antibody L243

HLA-DR4 (HLA-DRB1*04:01) [7] = molecular target: T7, HLA-DR4 (HLA-DRB1*04:01) (human); assay: competition ELISA vs biotin-HA 306-318;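 further: HLA and competitor incubated 24 to 72 h, maximal signal taken from wells lacking competitor, background from wells lacking HLA molecule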
T7 construct: mature; purified from homozygous EBV-transformed lymphoblastoid cells with antibody L243

[8] = molecular target: T8, HLA-DR11 (HLA-DRB1*11:01) (human); assay: competition ELISA vs biotin-HA 306-318;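 further: HLA and competitor incubated 24 to 72 h, maximal signal taken from wells lacking competitor, background from wells lacking HLA molecule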
T8 construct: mature; purified from homozygous EBV-transformed lymphoblastoid cells with antibody L243

[9] = molecular target: T9, HLA-DRB3 (HLA-DRB3*01:01) (human); assay: competition ELISA vs biotin-LOL 191-210
T9 construct: mature; purified from homozygous EBV-transformed lymphoblastoid cells with antibody L243

[10] = molecular target: T10, HLA-DP401 (HLA-DPB1*04:01) (human, UniProt P20036 29-222); assay: competition ELISA vs biotin-Oxy 271-287
T10 construct: mature; purified from homozygous EBV-transformed lymphoblastoid cells with antibody B7/21

[11] = molecular target: T11, HLA-DP402 (HLA-DPB1*04:02) (human, UniProt P20036 29-222); assay: competition ELISA vs biotin-Oxy 271-287
T11 construct: mature; purified from homozygous EBV-transformed lymphoblastoid cells with antibody B7/21

[12] = molecular target: T12, HLA-DRB4 (HLA-DRB4*01:01) (human); assay: competition ELISA vs biotin-E2/E168
T12 construct: mature; purified from homozygous EBV-transformed lymphoblastoid cells with antibody L243

HLA-DR7 (HLA-DRB1*07:01) [13] = molecular target: T1, HLA-DR7 (HLA-DRB1*07:01); assay: competition ELISA vs biotin-YKL; remark: listed apart in the source
HLA-DR3 (HLA-DRB1*03:01) [14] = molecular target: T2, HLA-DR3 (HLA-DRB1*03:01); assay: competition ELISA vs biotin-MT 2-16; remark: listed apart in the source
[15] = molecular target: T4, HLA-DR15 (HLA-DRB1*15:01); assay: competition ELISA vs biotin-A3 152-166; remark: listed apart in the source
HLA-DR1 (HLA-DRB1*01:01) [16] = molecular target: T5, HLA-DR1 (HLA-DRB1*01:01); assay: competition ELISA vs biotin-HA 306-318; remark: listed apart in the source
[17] = molecular target: T6, HLA-DRB5 (HLA-DRB5*01:01); assay: competition ELISA vs biotin-HA 306-318; remark: listed apart in the source
HLA-DR4 (HLA-DRB1*04:01) [18] = molecular target: T7, HLA-DR4 (HLA-DRB1*04:01); assay: competition ELISA vs biotin-HA 306-318; remark: listed apart in the source
[19] = molecular target: T8, HLA-DR11 (HLA-DRB1*11:01); assay: competition ELISA vs biotin-HA 306-318; remark: listed apart in the source
[20] = molecular target: T9, HLA-DRB3 (HLA-DRB3*01:01); assay: competition ELISA vs biotin-LOL 191-210; remark: listed apart in the source
HLA-DR7 (HLA-DRB1*07:01) [21] = molecular target: T1, HLA-DR7 (HLA-DRB1*07:01); assay: competition ELISA vs biotin-YKL; remark: listed apart in the source
HLA-DR3 (HLA-DRB1*03:01) [22] = molecular target: T2, HLA-DR3 (HLA-DRB1*03:01); assay: competition ELISA vs biotin-MT 2-16; remark: listed apart in the source
[23] = molecular target: T4, HLA-DR15 (HLA-DRB1*15:01); assay: competition ELISA vs biotin-A3 152-166; remark: listed apart in the source
HLA-DR1 (HLA-DRB1*01:01) [24] = molecular target: T5, HLA-DR1 (HLA-DRB1*01:01); assay: competition ELISA vs biotin-HA 306-318; remark: listed apart in the source
[25] = molecular target: T6, HLA-DRB5 (HLA-DRB5*01:01); assay: competition ELISA vs biotin-HA 306-318; remark: listed apart in the source
HLA-DR4 (HLA-DRB1*04:01) [26] = molecular target: T7, HLA-DR4 (HLA-DRB1*04:01); assay: competition ELISA vs biotin-HA 306-318; remark: listed apart in the source
[27] = molecular target: T8, HLA-DR11 (HLA-DRB1*11:01); assay: competition ELISA vs biotin-HA 306-318; remark: listed apart in the source
[28] = molecular target: T9, HLA-DRB3 (HLA-DRB3*01:01); assay: competition ELISA vs biotin-LOL 191-210; remark: listed apart in the source
[29] = molecular target: T12, HLA-DRB4 (HLA-DRB4*01:01); assay: competition ELISA vs biotin-E2/E168; remark: listed apart in the source
[30] = molecular target: T3, HLA-DR13 (HLA-DRB1*13:01); assay: competition ELISA vs biotin-B1 21-36; remark: listed apart in the source
[31] = molecular target: T10, HLA-DP401 (HLA-DPB1*04:01); assay: competition ELISA vs biotin-Oxy 271-287; remark: listed apart in the source
[32] = molecular target: T11, HLA-DP402 (HLA-DPB1*04:02); assay: competition ELISA vs biotin-Oxy 271-287; remark: listed apart in the source
[33] = molecular target: T12, HLA-DRB4 (HLA-DRB4*01:01); assay: competition ELISA vs biotin-E2/E168; remark: listed apart in the source
[34] = molecular target: T3, HLA-DR13 (HLA-DRB1*13:01); assay: competition ELISA vs biotin-B1 21-36; remark: listed apart in the source

Binder | relative affinity (HLA-DR7 (HLA-DRB1*07:01) [1]) | relative affinity (HLA-DR3 (HLA-DRB1*03:01) [2]) | relative affinity [3] | relative affinity [4] | relative affinity (HLA-DR1 (HLA-DRB1*01:01) [5]) | relative affinity [6] | relative affinity (HLA-DR4 (HLA-DRB1*04:01) [7]) | relative affinity [8] | relative affinity [9] | relative affinity (HLA-DR3 (HLA-DRB1*03:01) [22]) | relative affinity [23] | relative affinity (HLA-DR1 (HLA-DRB1*01:01) [24]) | relative affinity [25] | relative affinity (HLA-DR4 (HLA-DRB1*04:01) [26]) | relative affinity [28] | relative affinity [31] | other results
TAMFIASKYEEMYPP-NH2 [CCNB1 250-264] | 4 | 4 | 3 | 9 | 22 | 82 | 70 | 6 | 34 |  |  |  |  |  |  |  | relative affinity [10]: 0.1; relative affinity [11]: 1
VQMKFRLLQETMYMT-NH2 [CCNB1 212-226] | 40 | 1 | 1 | 46 | 1 | 2 | 2 | 5 | 34 |  |  |  |  |  |  |  | relative affinity [12]: 683; relative affinity [10]: 110; relative affinity [11]: 9
DWLVQVQMKFRLLQE-NH2 [CCNB1 207-221] | 7 | 0.5 | 1 | 7 | 38 | 5 |  | 0.4 | 160 |  |  |  |  |  |  |  | relative affinity [12]: 49; relative affinity [11]: 171
HQIRQMEMKILRALN-NH2 [CCNB1 280-294] |  |  |  |  |  |  |  |  |  |  |  |  |  |  |  |  | relative affinity (HLA-DR7 (HLA-DRB1*07:01) [13]): 462; relative affinity (HLA-DR3 (HLA-DRB1*03:01) [14]): 0.2; relative affinity [15]: 0.3; relative affinity (HLA-DR1 (HLA-DRB1*01:01) [16]): 1220; relative affinity [17]: 4; relative affinity (HLA-DR4 (HLA-DRB1*04:01) [18]): 0.4; relative affinity [19]: 2000; relative affinity [20]: 53
FAFVTDNTYTKHQIR-NH2 [CCNB1 269-283] |  |  |  |  |  |  |  |  |  | 0.1 | 17 | 1340 | 42 | 0.4 | 34 |  | relative affinity (HLA-DR7 (HLA-DRB1*07:01) [21]): 577; relative affinity [27]: 2190
ETMYMTVSIIDRFMQ-NH2 [CCNB1 221-235] | 1 | 0.5 | 59 | 0.3 | 89 | 1 | 37 | 1 | 22 |  |  |  |  |  |  |  | relative affinity [12]: 7; relative affinity [10]: 59; relative affinity [11]: 68
ESLLPVMQHLAKNVV-NH2 [CCNB1 374-388] |  |  |  |  |  |  |  |  |  |  |  |  |  |  |  |  | relative affinity (HLA-DR7 (HLA-DRB1*07:01) [13]): 3; relative affinity [29]: 424; relative affinity (HLA-DR3 (HLA-DRB1*03:01) [14]): 764; relative affinity [30]: 6; relative affinity [15]: 19; relative affinity (HLA-DR1 (HLA-DRB1*01:01) [16]): 837; relative affinity [17]: 91; relative affinity (HLA-DR4 (HLA-DRB1*04:01) [18]): 91; relative affinity [19]: 0.3
QAFSDVILAVNDVDA-NH2 [CCNB1 144-158] |  |  |  |  |  |  |  |  |  | 8 | 46 | 1730 |  | 12 | 18 | 51 | 
PEIGDFAFVTDNTYT-NH2 [CCNB1 264-278] |  |  |  |  |  |  |  |  |  | 85 | 300 | 7000 | 61 | 2 | 19 |  | relative affinity (HLA-DR7 (HLA-DRB1*07:01) [21]): 86; relative affinity [27]: 1670
EPILVDTASPSPMET-NH2 [CCNB1 118-132] |  |  |  |  |  |  |  |  |  |  |  |  |  |  |  |  | relative affinity (HLA-DR3 (HLA-DRB1*03:01) [14]): 0.4; relative affinity [15]: 400; relative affinity (HLA-DR1 (HLA-DRB1*01:01) [16]): 6360; relative affinity (HLA-DR4 (HLA-DRB1*04:01) [18]): 0.3; relative affinity [20]: 12
RPLPLHFLRRASKIG-NH2 [CCNB1 299-313] | 35 |  | 0.2 | 200 | 63 | 26 | 624 | 0.1 |  |  |  |  |  |  |  |  | relative affinity [12]: 13
LSYTEESLLPVMQHL-NH2 [CCNB1 369-383] |  |  |  |  |  |  |  |  |  |  | 350 | 212 | 1380 | 58 | 72 | 4 | relative affinity (HLA-DR7 (HLA-DRB1*07:01) [21]): 91; relative affinity [27]: 45; relative affinity [32]: 1
EKLSPEPILVDTASP-NH2 [CCNB1 113-127] |  |  |  |  |  |  |  |  |  | 6 |  | 6000 |  | 55 | 151 | 72 | relative affinity [33]: 231; relative affinity [32]: 71
PNLCSEYVKDIYAYL-NH2 [CCNB1 164-178] |  |  |  |  |  |  |  |  |  |  | 28 | 2830 | 500 | 527 | 53 | 274 | relative affinity (HLA-DR7 (HLA-DRB1*07:01) [21]): 73; relative affinity [33]: 40; relative affinity [32]: 625
GDFAFVTDNTYTKHQ-NH2 [CCNB1 267-281] | 22 | 0.2 | 62 | 86 | 1500 | 24 | 1 | 1330 | 38 |  |  |  |  |  |  |  | 
REVTGNMRAILIDWL-NH2 [CCNB1 195-209] |  |  |  |  |  |  |  |  |  | 1 | 30 | 55 | 1410 | 260 | 20 | 725 | relative affinity [33]: 23; relative affinity [34]: 45; relative affinity [27]: 1180; relative affinity [32]: 791
